The record followed here is patent US20100303821A1 (GlaxoSmithKline, published 2010).

The target of test [1] is T1, human IL-13 (human, UniProt P35225 35-146). Description: cell-based or functional assay.
The target of test [2] is T1, human IL-13. Kind of test: cell-based or functional assay. This is another data set of the same source.
The target in test [3] is T2, human IL-4 (human, UniProt P05112 25-153).
T2 construct: also called recombinant E. coli-expressed human IL-4
T2 sequence (looked up): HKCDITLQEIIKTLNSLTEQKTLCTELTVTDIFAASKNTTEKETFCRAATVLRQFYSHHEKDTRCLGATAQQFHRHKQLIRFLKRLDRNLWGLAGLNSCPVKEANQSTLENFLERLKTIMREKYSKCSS
Description: SPR Biacore T100; mAbdAb captured on Protein A (CM5), human IL4 analyte. The procedure:
(§1) All binding curves were double referenced with a OnM injection (i.e. buffer alone).
(§2) Regeneration of the Protein A surface was with 50 mM NaOH. The assay was run at 25° C. using HBS-EP as running buffer. The data was fitted to 1:1 model inherent to the Biacore T100 analysis software.

The target of test [4] is T2, human IL-4. Kind of test: SPR Biacore T100; captured on Protein A (CM5), human IL4 analyte; footnote: on- and off-rate not measurable. A general note: SPR reads the build-up and loss of mass on a sensor chip optically.
Test [5] concerns the target T3, cyno IL-13 (cynomolgus, UniProt Q0PW92 21-132).
T3 construct: also called cynomolgus IL-13
Kind of test: SPR Biacore T100; captured on Protein A (CM5), cyno IL13 analyte; 'Impossible off-rates', beyond sensitivity. Here is the method: as §1, §2

The term Kd denotes the concentration at which binding is half-saturated. Usually koff stands for the first-order rate constant of dissociation. High values mean fast dissociation, low ones slow dissociation. Usually kon stands for the rate constant with which the complex forms. A low value points to slower complex formation.

T1 sequence (P35225 other isoform, or with tags, fused parts or gaps limits assumed): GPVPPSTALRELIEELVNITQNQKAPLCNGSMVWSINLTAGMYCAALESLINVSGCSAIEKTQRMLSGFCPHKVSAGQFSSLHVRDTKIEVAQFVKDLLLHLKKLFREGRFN
T3 sequence (Q0PW92 entry or part of it): as the sequence (P35225 other isoform, or with tags, fused parts or gaps limits assumed) above, with G1S, R10K, M42V, S67N, H83R, L100V, R110Q counted along it

B1: A1L1 (antibody, human IgG1, kappa, V domains shown)
VH: QVQLVQSGAEVKKPGSSVKVSCKASGFYIKDTYMHWVRQAPGQGLEWMGTIDPANGNTKYVPKFQGRVTITADESTSTAYMELSSLRSEDTAVYYCARSIYDDYHYDDYYAMDYWGQGTLVTVSS
VL: DIVMTQSPLSLPVTPGEPASISCRSSQNIVHINGNTYLEWYLQKPGQSPRLLIYKISDRFSGVPDRFSGSGSGTDFTLKISRVEADDVGIYYCFQGSHVPWTFGQGTKLEIKR
Turning to B1, in test [1], the “Mean ND50, TF-1 cell proliferation bioassay” value worked out at 5.01 nM. Further, the “ND50 human IL-13, TF-1 cell proliferation bioassay” value in test [2] was 2.52 nM.

B2: BPC1086 (bispecific antibody, human IgG1, kappa)
heavy: not shown
light: DIVMTQSPLSLPVTPGEPASISCRSSQNIVHINGNTYLEWYLQKPGQSPRLLIYKISDRFSGVPDRFSGSGSGTDFTLKISRVEADDVGIYYCFQGSHVPWTFGQGTKLEIKRTVAAPSVFIFPPSDEQLKSGTASVVCLLNNFYPREAKVQWKVDNALQSGNSQESVTEQDSKDSTYSLSSTLTLSKADYEKHKVYACEVTHQGLSSPVTKSFNRGEC
As for B2, in test [1], the “Mean ND50, TF-1 cell proliferation bioassay” value was 1.01 nM.

B3: BPC1093 (bispecific antibody, human IgG1, kappa)
heavy: not shown
light: B2 light
notes: also called 829H-(TVAAPS)2GS-154 (89M)
Consider B3, for which, in test [3], binding was characterised by a dissociation constant (Kd) of 0.055 nM, the koff is 0.000211 s⁻¹ and the on-rate constant (kon) worked out at 3.84e+06 M⁻¹ s⁻¹.

B4: BPC1112 (bispecific antibody, human IgG1, kappa)
heavy: not shown
light: B2 light
notes: also called 829H-(TVAAPS)2GS-154 (89K)
Turning to B4, the kon in test [4] was found to be 1.14e+08 M⁻¹ s⁻¹.

B5: BPC3214 (bispecific antibody, human IgG1, kappa)
heavy: not shown
light: DIQMTQSPSSLSASVGDRVTITCRSSQNIVHINGNTYLEWYQQKPGKAPKLLIYKISDRFSGVPSRFSGSGSGTDFTLTISSLQPEDFATYYCFQGSHVPWTFGQGTKLEIKRTVAAPSVFIFPPSDEQLKSGTASVVCLLNNFYPREAKVQWKVDNALQSGNSQESVTEQDSKDSTYSLSSTLTLSKADYEKHKVYACEVTHQGLSSPVTKSFNRGEC
For B5, in test [5], the Kd was 0.0158 nM and the off-rate constant (koff) is 5.07e-06 s⁻¹.
